Reference: US20160222085A1 (CHILDREN S HOSPITAL OF PHILADELPHIA, published 2016)
Ends that are not written are not given here.

Columns and labels:
[1] = molecular target: T1, FV-810 (FV-DT), Factor V with amino acids 811-1491 deleted from the B-domain (human, UniProt P12259 29-838; P12259 1520-2224); experiment: fluorescence anisotropy; FV-810 titrated into 20 or 40 nM OG488-BR, 50 uM PCPS, 25 C
T1 construct: range 1-810;range 1492-2196; Single-chain cofactor-like variant; All residue numbers count on mature Factor V (add 28 for the precursor)
Procedure: Control experiments were performed by titrating FV-810 into buffer containing 10 mM EDTA (X) or by titrating rFVa (▴).
(§1) Steady-state fluorescence anisotropy was measured at 25° C. in a PTI Quanta-Master™ fluorescence spectrophotometer (Photon Technology International, Birmingham, N.J.) using excitation and emission wavelengths of 480 and 520 nm, respectively, with long-pass filters (KV500, CVI Melles Griot) in the emission beam.
Data were analyzed by nonlinear least squares regression analysis using the Marquardt algorithm (Bevington et al. (1992) Data Reduction and Error Analysis for the Physical Sciences, pp. 141-167, McGraw-Hill, New York), and the quality of each fit was assessed as described (Straume et al. (1992) Methods Enzymol., 210:87-105).

[2] = molecular target: T1, FV-810 (FV-DT), Factor V with amino …; experiment: fluorescence anisotropy; buffer-pretreated protein titrated into 30 nM OG488-BR, 50 uM PCPS; n=1 assumed
Procedure: (§2) FV-810, FV-810^R709Q (▴), FV-810^R1545Q (♦), and FV-810^QQ (▪) were pretreated with buffer (FIG. 14A) or thrombin (FIG. 14B).
as §1

FV-810^R709Q = molecular target: T2, FV-810^R709Q (human, UniProt P12259 29-838; P12259 1520-2224); experiment: as above
T2 construct: range 1-810;range 1492-2196; mature numbering
Procedure: as §2, §1

FV-810^R1545Q = molecular target: T3, FV-810^R1545Q (human, UniProt P12259 29-838; P12259 1520-2224); experiment: as above
T3 construct: range 1-810;range 1492-2196; mature numbering
Procedure: as §2, §1

FV-810^QQ [3] = molecular target: T4, FV-810^QQ (human, UniProt P12259 29-838; P12259 1520-2224); experiment: as above
T4 construct: range 1-810;range 1492-2196; Both thrombin sites (Arg709 and Arg1545) changed to Gln; the assay field says where thrombin pretreatment was used
Procedure: as §2, §1

[4] = molecular target: T5, FV-810^R1545Q pretreated with thrombin (human, UniProt P12259 29-737; P12259 738-838; P12259 1520-2224); experiment: fluorescence anisotropy; thrombin-pretreated protein titrated into 30 nM OG488-BR, 50 uM PCPS; n=1 assumed
T5 construct: Cleaved only at Arg709: B-domain remnant stays tethered to the light chain; also called thrombin-cleaved FV-810^R1545Q
Procedure: as §2, §1

FV-810^QQ [5] = molecular target: T4, FV-810^QQ; experiment: as above
Procedure: as §2, §1

T1 sequence (P12259 other isoform, or with tags, fused parts or gaps, form in doubt): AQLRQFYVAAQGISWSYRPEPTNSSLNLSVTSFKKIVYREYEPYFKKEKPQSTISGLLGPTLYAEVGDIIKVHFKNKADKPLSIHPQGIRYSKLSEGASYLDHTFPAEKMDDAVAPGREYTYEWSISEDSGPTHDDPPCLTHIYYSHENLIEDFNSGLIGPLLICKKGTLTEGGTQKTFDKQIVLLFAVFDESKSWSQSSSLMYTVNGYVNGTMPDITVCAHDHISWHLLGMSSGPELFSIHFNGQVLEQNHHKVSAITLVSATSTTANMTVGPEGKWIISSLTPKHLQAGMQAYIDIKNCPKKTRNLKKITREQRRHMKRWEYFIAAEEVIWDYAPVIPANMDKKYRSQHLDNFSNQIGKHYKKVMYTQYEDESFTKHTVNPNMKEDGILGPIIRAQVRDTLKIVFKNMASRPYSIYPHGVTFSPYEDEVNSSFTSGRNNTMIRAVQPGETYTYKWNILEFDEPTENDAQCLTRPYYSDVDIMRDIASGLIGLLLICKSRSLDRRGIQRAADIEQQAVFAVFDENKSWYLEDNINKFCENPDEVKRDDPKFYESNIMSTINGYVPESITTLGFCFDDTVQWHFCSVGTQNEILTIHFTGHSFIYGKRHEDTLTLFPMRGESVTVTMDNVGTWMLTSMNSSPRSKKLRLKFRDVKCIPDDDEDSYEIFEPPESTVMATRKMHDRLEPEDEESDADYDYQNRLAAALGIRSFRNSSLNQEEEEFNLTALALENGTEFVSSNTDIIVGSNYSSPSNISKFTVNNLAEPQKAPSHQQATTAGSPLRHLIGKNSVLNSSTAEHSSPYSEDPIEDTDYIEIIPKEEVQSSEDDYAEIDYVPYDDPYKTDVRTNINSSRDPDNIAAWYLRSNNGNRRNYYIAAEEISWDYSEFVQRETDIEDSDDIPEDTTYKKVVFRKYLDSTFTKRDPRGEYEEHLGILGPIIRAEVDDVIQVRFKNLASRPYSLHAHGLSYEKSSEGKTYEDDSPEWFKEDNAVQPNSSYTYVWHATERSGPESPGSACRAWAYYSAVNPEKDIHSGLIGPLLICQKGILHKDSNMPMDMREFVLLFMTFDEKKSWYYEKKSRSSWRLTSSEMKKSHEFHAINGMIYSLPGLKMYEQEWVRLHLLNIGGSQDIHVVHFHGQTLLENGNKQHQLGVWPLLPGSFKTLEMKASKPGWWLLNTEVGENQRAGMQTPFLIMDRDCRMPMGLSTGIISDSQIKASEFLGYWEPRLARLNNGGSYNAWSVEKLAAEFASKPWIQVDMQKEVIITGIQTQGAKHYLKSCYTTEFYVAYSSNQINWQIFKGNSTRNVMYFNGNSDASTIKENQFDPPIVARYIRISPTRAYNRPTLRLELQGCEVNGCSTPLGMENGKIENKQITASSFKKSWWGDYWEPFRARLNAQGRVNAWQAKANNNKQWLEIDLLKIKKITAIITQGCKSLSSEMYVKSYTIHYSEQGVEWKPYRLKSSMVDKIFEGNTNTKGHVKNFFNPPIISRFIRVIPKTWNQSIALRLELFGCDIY
T4 sequence (P12259 other isoform, or with tags, fused parts or gaps): as the sequence (P12259 other isoform, or with tags, fused parts or gaps, form in doubt) above, with R709Q, R864Q counted along it
T3 sequence (P12259 other isoform, or with tags, fused parts or gaps R1545Q R1545Q): as the sequence (P12259 other isoform, or with tags, fused parts or gaps, form in doubt) above, with R864Q counted along it
T2 sequence (P12259 other isoform, or with tags, fused parts or gaps R709Q R709Q): as the sequence (P12259 other isoform, or with tags, fused parts or gaps, form in doubt) above, with R709Q counted along it
T5 sequence (P12259 29-737, chain 1 of 2): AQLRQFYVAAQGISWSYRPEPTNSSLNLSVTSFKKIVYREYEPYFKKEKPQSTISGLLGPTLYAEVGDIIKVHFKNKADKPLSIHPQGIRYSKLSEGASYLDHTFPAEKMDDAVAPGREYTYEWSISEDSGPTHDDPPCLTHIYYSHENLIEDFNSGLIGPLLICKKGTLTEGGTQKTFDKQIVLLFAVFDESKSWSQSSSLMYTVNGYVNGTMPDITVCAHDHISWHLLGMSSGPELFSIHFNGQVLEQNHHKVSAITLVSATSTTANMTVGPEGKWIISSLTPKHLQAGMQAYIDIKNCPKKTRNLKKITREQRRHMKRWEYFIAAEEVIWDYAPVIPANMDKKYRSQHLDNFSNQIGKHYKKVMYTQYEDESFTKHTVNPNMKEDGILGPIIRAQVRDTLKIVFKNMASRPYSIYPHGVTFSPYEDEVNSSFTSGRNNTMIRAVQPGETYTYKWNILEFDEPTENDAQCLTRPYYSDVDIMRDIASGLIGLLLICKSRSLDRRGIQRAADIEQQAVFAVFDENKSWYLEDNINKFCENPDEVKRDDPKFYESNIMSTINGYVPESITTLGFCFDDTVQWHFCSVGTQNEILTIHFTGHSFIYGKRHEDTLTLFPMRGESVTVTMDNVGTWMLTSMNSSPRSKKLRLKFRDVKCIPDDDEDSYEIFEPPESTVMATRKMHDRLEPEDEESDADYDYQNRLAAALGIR
T5 sequence (P12259 other isoform, or with tags, fused parts or gaps R1545Q R1545Q, chain 2 of 2): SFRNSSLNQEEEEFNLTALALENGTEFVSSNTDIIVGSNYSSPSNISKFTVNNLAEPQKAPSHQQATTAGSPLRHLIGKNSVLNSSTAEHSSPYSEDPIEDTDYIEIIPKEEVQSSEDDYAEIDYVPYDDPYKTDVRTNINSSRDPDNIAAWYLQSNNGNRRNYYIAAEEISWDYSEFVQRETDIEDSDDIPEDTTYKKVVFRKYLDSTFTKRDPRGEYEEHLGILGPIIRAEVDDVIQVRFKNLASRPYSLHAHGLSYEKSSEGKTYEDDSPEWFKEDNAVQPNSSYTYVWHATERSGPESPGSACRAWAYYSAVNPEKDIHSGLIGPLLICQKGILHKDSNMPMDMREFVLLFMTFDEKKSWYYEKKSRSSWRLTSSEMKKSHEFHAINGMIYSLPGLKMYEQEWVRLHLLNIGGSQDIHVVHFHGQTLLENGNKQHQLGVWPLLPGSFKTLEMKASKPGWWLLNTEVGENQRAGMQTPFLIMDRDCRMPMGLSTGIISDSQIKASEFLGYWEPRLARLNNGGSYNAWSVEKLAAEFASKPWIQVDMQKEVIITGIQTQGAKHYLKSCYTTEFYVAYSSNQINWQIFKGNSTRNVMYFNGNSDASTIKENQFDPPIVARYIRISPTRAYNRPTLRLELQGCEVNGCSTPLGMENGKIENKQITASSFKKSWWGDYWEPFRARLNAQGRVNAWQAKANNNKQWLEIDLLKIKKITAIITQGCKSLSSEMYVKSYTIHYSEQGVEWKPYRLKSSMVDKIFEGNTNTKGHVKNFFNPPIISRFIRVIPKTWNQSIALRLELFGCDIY

Kd [1]: 2.07 nM | Kd [2]: 2.1 nM | Kd (FV-810^R709Q): 7.1 nM | Kd (FV-810^R1545Q): 2 nM | Kd (FV-810^QQ [3]): 0.31 nM | Kd [4]: 30.3 nM | Kd (FV-810^QQ [5]): 1.3 nM
B1: Oregon Green 488 maleimide-modified BR (OG488-BR) (peptide)
peptide: C(Oregon Green 488 maleimide)SRAWGESTPLANKPGKQSGHPKFPRVRHKSLQVRQDGGKSRLKKSQFLIKTRKKKKEK
notes: also called fluorescently labeled FVBR
